“And” between values parts separate entries of the source, which are not always exact repeats. Identical values can stand only once.
Experiments:
Erbb4-null mice = assay: Survival of Erbb4-null mice under AngII treatment; type: in vivo, mouse; set-up: key to Survival probability in AngII-treated Erbb4-null mice: 0: Survived until end of experiment; 1: Died before the end of the experiment
Description: Floxed Erbb4 mice (Erbb4^f/f; C57BL/6N; 129-Erbb4tm1Fej/Mmucd, MMRRC, #010439-UCD) were crossed with CAGGCre-ER^TM mice (Jackson Laboratory, 004682) containing the Tg(CAG-cre/Esr1*)5Amc transgene that expresses Cre recombinase under the control of a chicken beta actin promoter/enhancer coupled to the human cytomegalovirus immediate-early gene enhancer, resulting in expression of tamoxifen-inducible Cre-ERT in most cell types. To induce Cre recombinase-mediated deletion of Erbb4, eleven-week-old female and male iCAGGCre-ER^TM/Erbb4^f/f mice were intraperitoneally injected with tamoxifen (Merck, T5648; 10 mg/kg; in corn oil) daily for 5 consecutive days.
Statistical analysis was performed using GraphPad Prism version 10. Data are presented as the mean value of biological replicates (unless stated otherwise) ± SD. Data was checked for normality using the Shapiro–Wilk normality test. […]
Supplementary Figure 6. […] (a) Representative images of Masson’s trichrome staining of AngII-induced myocardial fibrosis following treatment with NA-1 and corresponding graphs showing the quantitation for total and perivascular fibrosis in male mice (n=5 male mice in Ctrl and AngII/Veh group, n=4 male mice in AngII/NA-1 group). […]

HCFs = assay: In vitro collagen expression: COL3A1 mRNA in HCFs stimulated with TGF-β1; type: cell-based, human
Protocol: HCFs were seeded at a density of 1.5 ×10^5 cells/well in doxycycline-free medium in 12-well plates (Greiner Bio-One, 665180) and incubated overnight. […] Compounds were pre-incubated for 10 min before addition of TGF-β1.
RNA was extracted using Nucleospin RNA XS (Macherey-Nagel, 740902.50) according to the manufacturer’s instructions. For cDNA synthesis, total RNA was added to a mixture containing buffer with random hexamers and reverse transcriptase enzyme (TaqMan reverse transcription reagents, Applied biosystems, N8080234) after which samples were incubated for 10 min at 25 °C, 30 min at 48 °C, and 5 min at 95 °C. RT-qPCR was performed on QuantStudio 3 Real-time PCR system (Applied Biosystems) using Taqman Universal PCR Master Mix (Applied Biosystems, 4304437) and Taqman primers according to the manufacturer’s instructions. Settings were as follows: […] followed by 10 min at 95 °C, 40 cycles (45 cycles for ERBB4) of denaturation at 95 °C for 15 s, and 1 min at 60 °C. All reactions were run in duplicate, and all data were normalized against housekeeping genes glyceraldehyde-3-phosphate dehydrogenase (GAPDH), beta-actin (ACTB), or phosphoglycerate kinase 1 (PGK1). Expression levels were calculated using the comparative cycle method and expressed as fold change (FC) to appropriate controls. The following TaqMan primers were used (Thermo Fisher Scientific): GAPDH (Hs02758991_g1, Mm99999915_g1 and Rn01775763_g1), PGK1 (Hs99999906_m1), ID2 (Hs04187239_m1), BMPR1B (Hs01010965_m1), CACNA2D4 (Hs00297782_m1), DUSP2 (Hs00358879_m1), NR4A1 (Hs00374226_m1), SGK1 (Hs00178612_m1), COL1A1 (Mm00801666_g1), COL3A1 (Hs00943809_m1 and Mm00802305_g1), ERBB4 (Hs00955525_m1 and Rn00572447_m1), ACTB (Mm02619580_g1) and ANP (Mm01255747_g1).

angiotensin II (DRVYIHPF; Angiotensin-2; UniProt P01019 25-32, looked up) [AngII, inducer of hypertrophy in iAMs and of myocardial fibrosis in mice]
Survival probability in AngII-treated Erbb4-null mice (Erbb4-null mice; 1000 ng/kg AngII, Erbb4-null mice, individual animals): 1 and 0
mortality in Erbb4-null mice (Erbb4-null mice; AngII dose of 1000 ng/kg/day): 80%

transforming growth factor β1 [TGF-β1, reference compound]
increase of COL3A1 mRNA levels in HCFs (HCFs; TGF-β1 10 ng/mL): 36%
COL3A1 mRNA expression (FC), HCF validation TGFβ (HCFs; TGFβ vs Vehicle, single replicates): 1.323 and 1.4 and 1.364

Reference: article PMC11724075, “Small-molecule-induced ERBB4 activation to treat heart failure” (Nature Communications, 2025)
